Experimental data as given in PMC9949351, “Chromatin localization of nucleophosmin organizes ribosome biogenesis” (Molecular cell, 2022).

B1: Fkbp39 (natural protein, S. pombe, UniProt O74191 1-361, looked up)
chain: MSLPIAVYSLSVKGKDVPAVEESTDASIHLTMASIDAGEKSNKPTTLLVKVRPRIPVEDEDDEELDEQMQELLEESQREFVLCTLKPGSLYQQPLNLTITPGDEVFFSASGDATIHLSGNFLVDEEDEEEEESDEDYDLSPTEEDLVETVSGDEESEEESESEDNSASEEDELDSAPAKKAQVKKKRTKDESEQEEAASPKKNNTKKQKVEGTPVKEKKVAFAEKLEQGPTGPAAKKEKQQASSNAPSSPKTRTLKGGVVVTDVKTGSGASATNGKKVEMRYIGKLENGKVFDKNTKGKPFAFILGRGEVIRGWDVGVAGMQEGGERKITIPAPMAYGNQSIPGIPKNSTLVFEVKLVRVH
notes: Fkbp39, S. pombe, SPBC1347.02; cloned into a pETDuet vector behind 6xHis-SUMO and an HRV-3C site; also called nucleophosmin-like protein Fkbp39; SPBC1347.02; source: E. coli Rosetta, purified (Ni Sepharose, tag removed, SP ion exchange, at times SEC); not shown: 6xHis, N-terminal, cleaved; SUMO, N-terminal, cleaved
B2: 6xHis-SUMO-Fkbp39 (natural protein, S. pombe, UniProt O74191 1-361, looked up)
chain: B1 chain
notes: Fkbp39, S. pombe, SPBC1347.02; pETDuet construct with 6xHis-SUMO and an HRV-3C site, tag not removed; source: E. coli Rosetta (Fkbp39 constructs), purified; used as 6xHis-SUMO-Fkbp39; not shown: 6xHis, N-terminal, kept; SUMO, N-terminal, kept
B3: Fkbp41 (natural protein, S. pombe, UniProt Q10175 1-362, looked up)
chain: MSKEETLYSVKVDQERVPLFDEDFYKGFRSELSVRFTMAALDPRAKSNDAVTVNVITRLEHPEEDGEESDEELFQEEKFTLCTLKKGSVYQQPIDIIFSPGEEVFFERVGGDIPVYLSGTCIITNIPEEEDSSDLENDFLYGADEFSSDEEEMDDISVTSSEEEEEENGARIEELNSDEEDAEQAEEEILEKPVPKDEVAEKHSKDKLKKEEKEKKTAVDVSDSVNGKKRKTEPAGEGEQTEKKSKSTKTYPKQVLEGNVTVQDKVKGDGPAAKRKKRVSMRYIGRLTNGKVFDKNITGKPFTFNLGLEEVIKGWDVGIVGMQVGGERTIHIPAAMAYGSKRLPGIPANSDLVFDVKLLAVN
notes: Fkbp41, S. pombe, SPAC27F1.06c; cloned into a pETDuet vector behind 6xHis-SUMO and an HRV-3C site; also called nucleophosmin-like protein Fkbp41; SPAC27F1.06c; source: E. coli Rosetta (DE3), purified (Ni Sepharose, tag removed, Q ion exchange, at times SEC); not shown: 6xHis, N-terminal, cleaved; SUMO, N-terminal, cleaved

Tests used:
[1] = molecular target: the molecule itself; assay: mass photometry + SEC; purified Fkbp39 and Fkbp41, oligomeric state; SEC on Superdex 200 Increase 10/300 GL
Fkbp41 = molecular target: B3; assay: pull-down; 'in vitro co-immunoprecipitation': 12 μg each of 6xHis-SUMO-Fkbp39 and Fkbp41, 45 min at 4 °C in 30 mM HEPES-Na pH 7.5-8, 150 mM NaCl, 20 mM imidazole; Ni Sepharose resin, imidazole elution, SDS-PAGE; conditions: both partners purified

binding result (Fkbp41) | Binder | stoichiometry N [1]
 | B1 | 5
binds | B2 | 
 | B3 | 2
